Reference: patent US20250042940A1 (CREIGHTON UNIVERSITY, published 2025)
Blank lines part the entries; values can stand above or below the binder they belong to. Non-standard residues stand in square brackets, D forms with d. No end group written: not given here. Pmb = 4-(di-t-butylphosphonomethyl)-3-methylbutyric acid, phosphonate replacement of phospho-Thr; pT = C[C@@H](OP(=O)(O)O)[C@H](N)C(=O)O; pS = N[C@@H](COP(=O)(O)O)C(=O)O

Legend:
[1] = molecular target: T1, 14-3-3ε protein (purified, as used in DSF and in the SPR of the Pmb peptide) (UniProt P62258 1-255); test: differential scanning fluorimetry (DSF), 14-3-3ε alone against 14-3-3ε with peptide
T1 sequence (looked up): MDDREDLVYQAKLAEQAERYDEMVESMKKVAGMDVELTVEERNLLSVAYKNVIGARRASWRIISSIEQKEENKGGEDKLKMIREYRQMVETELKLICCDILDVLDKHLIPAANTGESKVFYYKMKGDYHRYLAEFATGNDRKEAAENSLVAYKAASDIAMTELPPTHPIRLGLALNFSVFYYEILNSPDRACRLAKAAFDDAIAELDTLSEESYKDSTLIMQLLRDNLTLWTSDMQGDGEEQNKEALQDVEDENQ

[2] = molecular target: T1, 14-3-3ε protein (purified, as used in …); test: SPR
[3] = molecular target: T2, 14-3-3ε (endogenous, in human SCC12B.2 squamous cell carcinoma cells) (human, UniProt P62258 1-255); test: cell-based or functional assay
T2 sequence (looked up): T1 sequence (looked up)

14-3-3ε-(His)12 protein = molecular target: T3, 14-3-3ε-(His)12 protein (UniProt P62258 1-255); test: SPR, Biacore 8K, 14-3-3ε-(His)12 on NTA chip, peptide 1 nM-2000 nM, 25° C., mean±SD
T3 sequence: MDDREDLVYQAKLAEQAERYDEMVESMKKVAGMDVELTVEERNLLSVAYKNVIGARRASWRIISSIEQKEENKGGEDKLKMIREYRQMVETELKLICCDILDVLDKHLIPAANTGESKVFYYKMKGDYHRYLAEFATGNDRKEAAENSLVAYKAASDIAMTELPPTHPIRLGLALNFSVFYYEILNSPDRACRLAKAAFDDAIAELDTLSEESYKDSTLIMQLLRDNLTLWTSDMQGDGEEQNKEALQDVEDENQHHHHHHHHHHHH
Description: For the SPR measurements, binding affinities of the modified pT peptide for 14-3-3ε were measured by SPR using a Biacore 8K Surface plasmon resonance instrument. 100 nM 14-3-3ε-(His)12 protein in 20 mM Tris, 150 mM NaCl, 50 μM EDTA, 0.005% Tween 20, pH 7.4 buffer was immobilized to a NiCl2 activated NTA chip at a flow rate of 5 μL/min for 10 min and then washed with the running buffer for 20 min. Then peptide solutions at a concentration range of 1 nM-2000 nM were injected cycle-wise at the flow rate of 30 μL/min for 1 min, and dissociation time was set for 3 min. All SPR experiments were performed at 25° C. […] At least three replicates were done for each peptide at similar conditions, and binding affinities (KD) are presented as mean±SD.

[4] = molecular target: T1, 14-3-3ε protein (purified, as used in …); test: differential scanning fluorimetry (DSF), SYPRO-Orange, 2 µM protein and 30 µM peptide
Description: The binding of the modified pT peptide to 14-3-3ε was assessed using differential scanning fluorimetry (DSF) and surface plasmon resonance (SPR) measurements. The melting temperature (Tm) of 14-3-3ε-peptide complexes was determined by DSF using the BioRad CFX384 Touch realtime PCR. The protein unfolding was detected with a fluorescent SYPRO-orange dye. The assay was performed in 20 mM Tris, 150 mM NaCl, and 1 mM DTT PH7.4 buffer in a […] with a total volume of 20 μL, containing 2 and 30 μM, final concentrations of protein and peptide, respectively, and 500× dilution of the SYPRO-Orange dye stock. The excitation filter for the dye was 450-490 nm, and the emission filter was 560-580 nm. The temperature was held at 25° C. for 5 min and then increased from 25 to 95° C. at a rate of 0.3° C./ min, and fluorescence was recorded over time. Tm values were determined by plotting the first derivative of the melting curve.

Kd [2]: 9 nM
B1: first targeting peptide with a Pmb residue, Ac-Arg-Thr-Lys-Ser-Arg-Pmb-Trp-Ala-Gly-NH2 (peptide)
peptide: Ac-RTKSR[Pmb]WAG-NH2
notes: Synthetic analog of the pT peptide (CDC25A Thr507 site) in which the phospho-Thr is replaced by Pmb; also called phosphono-peptide
increase in melting temperature (ΔTm) of 14-3-3ε [1]: 3.6 ° C.

B2: peptide pS, Ac-Thr-Gln-Arg-Gln-Asn-Ser-(PO3^2-)-Ala-Pro-Arg-Met-Leu-Ser-Ser-Asn-NH2 (peptide)
peptide: Ac-TQRQN[pS]APRMLSSN-NH2
SMILES: CSCC[C@H](NC(=O)[C@H](CCCNC(=N)N)NC(=O)[C@@H]1CCCN1C(=O)[C@H](C)NC(=O)[C@H](COP(=O)(O)O)NC(=O)[C@H](CC(N)=O)NC(=O)[C@H](CCC(N)=O)NC(=O)[C@H](CCCNC(=N)N)NC(=O)[C@H](CCC(N)=O)NC(=O)[C@@H](NC(C)=O)[C@@H](C)O)C(=O)N[C@@H](CC(C)C)C(=O)N[C@@H](CO)C(=O)N[C@@H](CO)C(=O)N[C@@H](CC(N)=O)C(N)=O
IC50, dose response curve in SCC12B.2 cells (Neutral Red Cell Viability assay) [3]: 29 µM

Binder: WYWK-NH2 [targeting peptide ES1P2, Trp-Tyr-Trp-Lys-NH2]
IC50, dose response curve in SCC12B.2 cells (Neutral Red Cell Viability assay) [3]: 20.6 µM

Kd (14-3-3ε-(His)12 protein): 30.9 nM
B3: modified pT peptide, Ac-Arg-Thr-Lys-Ser-Arg-Thr(PO3^2-)-Trp-Ala-Tic-NH2 (peptide)
peptide: RTKSRTWAX
modifications: N-terminal acetyl; phospho-Thr at position 6; Tic residue at position 9; C-terminal amide
notes: Synthetic modification of peptide pT; also called peptide pT modified with a Tic residue
increase in melting temperature (ΔTm) of 14-3-3ε [4]: 4.43 ° C.

Binder: Ac-RTKSR[pT]WAGEKSKR-NH2 [peptide pT, Ac-Arg-Thr-Lys-Ser-Arg-Thr(PO3^2-)-Trp-Ala-Gly-Glu-Lys-Ser-Lys-Arg-NH2]
IC50, dose response curve in SCC12B.2 cells (Neutral Red Cell Viability assay) [3]: 22.6 µM
